In article PMC5758886 one finds stoichiometry N data, which are given here for two substances.

Experiment [1] deals with AcrIIA1 selenomethionyl L52M mutant (Listeria monocytogenes prophages). Briefly: crystal structure.
For experiment [2], the target named is AcrIIA1 (native wild type) (Listeria monocytogenes prophages). Briefly: SEC. (In general: SEC sorts molecules by how far they enter the pores of the column.)
Experiment [3] has the same target. Briefly: crystal structure.

As a reminder, the stoichiometry N is the number of molecules, sites or subunits per partner or assembly.

As to “AcrIIA1 selenomethionyl L52M mutant (natural protein)”, in experiment [1], the stoichiometry N came out at 2.

Take “AcrIIA1 (native wild type) (natural protein)”: the stoichiometry N in experiment [2] and in experiment [3] was 2 in each case.
